These are literature values, as cited in publication PMC7080216.

pKi: −log10 of the molar value.

Data set [1] concerns the target matriptase (Homo sapiens) (UniProt Q9Y5Y6).
For data set [2], the target named is cathepsin G (Homo sapiens) (UniProt P08311).
UniProt P08311, sequence (P08311 21-243): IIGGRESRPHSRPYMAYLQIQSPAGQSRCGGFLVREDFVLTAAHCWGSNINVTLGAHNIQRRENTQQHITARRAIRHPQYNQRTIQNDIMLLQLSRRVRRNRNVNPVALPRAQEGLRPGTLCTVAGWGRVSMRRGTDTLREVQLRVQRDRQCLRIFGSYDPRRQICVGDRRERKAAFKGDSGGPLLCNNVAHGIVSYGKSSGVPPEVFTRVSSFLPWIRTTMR

UniProt Q9Y5Y6, sequence (Q9Y5Y6 whole entry): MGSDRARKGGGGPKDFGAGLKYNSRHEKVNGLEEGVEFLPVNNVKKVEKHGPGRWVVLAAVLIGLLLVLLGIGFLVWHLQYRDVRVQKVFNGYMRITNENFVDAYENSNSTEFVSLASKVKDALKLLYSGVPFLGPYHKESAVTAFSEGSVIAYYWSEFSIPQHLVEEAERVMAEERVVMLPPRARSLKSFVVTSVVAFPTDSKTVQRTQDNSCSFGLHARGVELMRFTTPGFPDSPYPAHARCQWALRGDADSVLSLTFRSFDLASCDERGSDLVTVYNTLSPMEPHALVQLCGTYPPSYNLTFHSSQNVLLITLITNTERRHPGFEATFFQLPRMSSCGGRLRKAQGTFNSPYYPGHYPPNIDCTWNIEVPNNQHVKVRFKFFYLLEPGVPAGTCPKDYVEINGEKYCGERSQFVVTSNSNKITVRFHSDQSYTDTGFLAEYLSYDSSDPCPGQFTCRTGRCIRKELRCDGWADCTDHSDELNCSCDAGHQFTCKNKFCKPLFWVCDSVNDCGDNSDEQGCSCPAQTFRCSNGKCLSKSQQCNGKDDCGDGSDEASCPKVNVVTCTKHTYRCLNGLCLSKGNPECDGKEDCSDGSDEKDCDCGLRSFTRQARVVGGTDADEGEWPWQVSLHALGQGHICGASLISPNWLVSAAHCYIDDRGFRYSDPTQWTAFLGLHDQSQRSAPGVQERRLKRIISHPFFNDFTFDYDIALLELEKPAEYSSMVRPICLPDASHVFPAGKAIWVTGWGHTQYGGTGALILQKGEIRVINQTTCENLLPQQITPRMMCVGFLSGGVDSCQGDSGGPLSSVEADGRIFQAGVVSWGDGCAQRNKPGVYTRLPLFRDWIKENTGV

With SFTI-1 (from UniProt Q4GWU5), the pKi (in general, −log10 of the Ki, conventionally taken in molar units) in data set [1] is 9.00; in data set [2] it was 6.24.
